Laboratory results: patent publication US20220267415A1 (University of Texas, published 2022)

Tests used:
[1] = target: T1, recombinant SARS-CoV-2 Receptor Binding Domain (RBD) with a his tag (ATUM, Cat. 65639.1.a) (SARS-CoV-2, UniProt P0DTC2 319-541)
[2] = target: T1, recombinant SARS-CoV-2 Receptor Binding …; assay: ELISA on coated RBD-his
Excerpt: Plates were then washed 5 times with 0.05% PBS-Tween and blocked with 2% BSA-PBS. […] Luminescent data were collected on an EnVision plate reader (Perkin-Elmer) and analyzed with GraphPad Prism using a 4-parameter logistic model.

B1: anti-SARS-CoV2-09 IgM (antibody)
VH: QVQLHQWGAGLLKPSETLSRTCAVYGGSFSGYYWTWIRQAPGKGLEWIGEINHGGSTRYNPSLESRVSISVDTSKKQFSLELRSVTAADTAIYYCARGYDTNWYGDGYNWFDPWDRGTLVTVSS
VL: QSALTQDPSVSVALGQTVRITCQGDSLRGSFASWYRQKPGQAPVLVIFGINNRPSGVPDRFSGSSSGNTASLTITGAQAEDEADYYCNSRESNSNRILFGGGTKVTVL
chain: not shown
EC50 (read off the curve) [1]: ~400 pM
EC50 [2]: 300 pM
